# Measurements published in patent US7285395B2, “Stearoyl-CoA desaturase 4 gene” (Wisconsin Alumni Research Foundation, priority 2004, dated 2007).
# B1: leptin: recombinant mouse leptin (Amgen, Thousand Oaks, Calif.) (protein, UniProt P41160 22-167, looked up)
# Leptin: VPIQKVQDDTKTLIKTIVTRINDISHTQSVSAKQRVTGLDFIPGLHPILSLSKMDQTLAVYQQVLTSLPSQNVLQIANDLENLRDLLHLLAFSKSCSLPQTSGLQKPESLDGVLEASLYSTEVVALSRLQGSLQDILQQLDVSPEC
# Assays:
# ob/ob mice = assay: food intake and body weight of ob/ob mice under subcutaneous leptin treatment; assay type: in vivo, mouse; conditions: leptin 200 ng/h subcutaneous miniosmotic pump
# Procedure: Subcutaneous Leptin Treatment—ob/ob mice were individually caged and allowed to acclimate for a number of days prior to the start of the experiment. The mice were treated with 200 ng/h of recombinant mouse leptin (Amgen, Thousand Oaks, Calif.) […] phosphate-buffered saline (PBS) for 12 days using subcutaneously placed Alzet miniosmotic pumps model 1002 (AlZa Co., Palo Alto, Calif.) as described in Soukas, A. et al. (2000) Genes Dev. 14, 963-980, which is herein incorporated by reference in its entirety. As an additional control, a group of mice referred to as pair-fed was treated with PBS and given the same amount of food to eat as leptin-treated mice voluntarily consumed. All of the data presented were generated from this or a similar time course where mice were either treated with PBS or leptin for 12 days. Body mass and food intake were measured daily.
# ob/ob mice have a mutation in the leptin gene and are a model of obesity, insulin resistance, and diabetes. […] We analyzed the mRNA level of the SCD4 isoform in the hearts of leptin-deficient ob/ob mice and ob/ob mice treated with either PBS or leptin. As an additional control, RNA isolated from saline-treated ob/ob mice that were pair-fed to the leptin treated group for 12 days was also analyzed. […] To determine which SCD isoform(s) accounted for these effects, we measured RNA levels of mSCD1, mSCD2, and mSCD4. […]
# mSCD2 = assay: quantitative RT-PCR of mSCD2 mRNA in hearts of leptin-treated ob/ob mice; assay type: in vivo, mouse; conditions: heart of leptin-treated ob/ob mice, 12 days
# Procedure: A, SCD activity: Microsomes were prepared from hearts of PBS-treated, ob/ob, ob/ob pair-fed (PF), and leptin-treated (ob/ob-Leptin) mice, and SCD enzyme activity was determined by measuring the incorporation of radioactivity in oleoyl-CoA using [1-^14C]stearoyl-CoA as a substrate. The reaction products were separated by TLC, and the radioactivity was quantitated. Each value represents the mean±S.E. (n=4). B, Levels of monounsaturated fatty acids in the hearts of ob/ob mice: Total fatty acids were extracted from heart of ob/ob mice treated with either leptin or PBS and wild type controls quantitated by GLC as described in the example below. *, p<0.05 versus wt-PBS; #,p<0.05 versus ob/ob-PBS. C, Total RNA was prepared from hearts of PBS or leptin-treated ob/ob mice and used to measure SCD1, SCD2, and SCD4 mRNA levels by quantitative RT-PCR analysis. The fold change relative to that of wild type was calculated after correction for the levels of cyclophilin used as a standard. Each value represents the mean±S.E. (n=4).
# Subcutaneous Leptin Treatment—ob/ob mice were individually caged and allowed to acclimate for a number of days prior to the start of the experiment. […] Body mass and food intake were measured daily. […]
molecule,measurement,setting,value
B1,food intake,ob/ob mice; after 12 days of treatment,1.2 ± 0.1 g
same,loss of initial weight,ob/ob mice; end of 12-day treatment,34±0.8%
same,expression of mSCD2 isoform,mSCD2,unchanged
